Measurements as given in publication PMC13017536 (Nature, 2026).

Target: T1, His-tagged LetA (N-terminal 6×His2xQH-TEV-tagged LetA) (E. coli, UniProt P0AD03 1-427)
T1 sequence (looked up): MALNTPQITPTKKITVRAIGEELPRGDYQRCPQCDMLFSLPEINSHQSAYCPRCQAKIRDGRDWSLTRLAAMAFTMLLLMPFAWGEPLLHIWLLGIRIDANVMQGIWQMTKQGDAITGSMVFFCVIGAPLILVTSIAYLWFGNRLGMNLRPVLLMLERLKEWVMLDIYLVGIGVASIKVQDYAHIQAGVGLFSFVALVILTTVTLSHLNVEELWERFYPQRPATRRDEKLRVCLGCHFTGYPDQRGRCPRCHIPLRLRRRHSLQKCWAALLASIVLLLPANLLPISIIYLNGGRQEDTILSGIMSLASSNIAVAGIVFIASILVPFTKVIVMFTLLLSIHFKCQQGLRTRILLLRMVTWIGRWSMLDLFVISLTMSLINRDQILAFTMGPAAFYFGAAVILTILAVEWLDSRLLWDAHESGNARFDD
Experiment: cryo-EM structure

B1: LetB (lipophilic envelope-spanning tunnel B), untagged (natural protein, E. coli, UniProt P76272 1-877, looked up)
chain: MSQETPASTTEAQIKNKRRISPFWLLPFIALMIASWLIWDSYQDRGNTVTIDFMSADGIVPGRTPVRYQGVEVGTVQDISLSDDLRKIEVKVSIKSDMKDALREETQFWLVTPKASLAGVSGLDALVGGNYIGMMPGKGKEQDHFVALDTQPKYRLDNGDLMIHLQAPDLGSLNSGSLVYFRKIPVGKVYDYAINPNKQGVVIDVLIERRFTDLVKKGSRFWNVSGVDANVSISGAKVKLESLAALVNGAIAFDSPEESKPAEAEDTFGLYEDLAHSQRGVIIKLELPSGAGLTADSTPLMYQGLEVGQLTKLDLNPGGKVTGEMTVDPSVVTLLRENTRIELRNPKLSLSDANLSALLTGKTFELVPGDGEPRKEFVVVPGEKALLHEPDVLTLTLTAPESYGIDAGQPLILHGVQVGQVIDRKLTSKGVTFTVAIEPQHRELVKGDSKFVVNSRVDVKVGLDGVEFLGASASEWINGGIRILPGDKGEMKASYPLYANLEKALENSLSDLPTTTVSLSAETLPDVQAGSVVLYRKFEVGEVITVRPRANAFDIDLHIKPEYRNLLTSNSVFWAEGGAKVQLNGSGLTVQASPLSRALKGAISFDNLSGASASQRKGDKRILYASETAARAVGGQITLHAFDAGKLAVGMPIRYLGIDIGQIQTLDLITARNEVQAKAVLYPEYVQTFARGGTRFSVVTPQISAAGVEHLDTILQPYINVEPGRGNPRRDFELQEATITDSRYLDGLSIIVEAPEAGSLGIGTPVLFRGLEVGTVTGMTLGTLSDRVMIAMRISKRYQHLVRNNSVFWLASGYSLDFGLTGGVVKTGTFNQFIRGGIAFATPPGTPLAPKAQEGKHFLLQESEPKEWREWGTALPK
stoichiometry N: 6 LetB per LetA
